Assay [1] addresses CD20 (human (endogenous in Ramos)) (UniProt P11836).
The target is the same in assay [2]. This is another data set of the same source.
For assay [3] the target is unchanged. In words: flow cytometry on cells; 1E6 Ramos cells incubated with 0.5μg (16.7nM) or 1μg (33.3nM) of the RTX variant (non-saturating amounts); bound antibody detected with FITC murine monoclonal anti human kappa light chain antibody; read-out: MFI of the variant divided by MFI of the IgG1 control.

UniProt P11836, sequence (P11836 whole entry): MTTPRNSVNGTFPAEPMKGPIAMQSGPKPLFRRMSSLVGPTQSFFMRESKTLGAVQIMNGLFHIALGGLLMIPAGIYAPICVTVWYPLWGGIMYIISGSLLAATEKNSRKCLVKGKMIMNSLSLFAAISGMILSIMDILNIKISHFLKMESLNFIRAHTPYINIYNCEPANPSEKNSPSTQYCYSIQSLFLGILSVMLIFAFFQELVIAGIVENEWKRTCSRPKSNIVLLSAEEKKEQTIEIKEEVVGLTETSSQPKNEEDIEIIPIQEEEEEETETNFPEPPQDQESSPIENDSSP

For the substance Rituximab IgG1 a1 (antibody), the apoptosis of Ramos cells after 24h (AnnexinV-FITC positive cells, absolute), 2000ng antibody, no crosslinker in assay [1] is 11 % of cells.
For Rituximab IgG2 (antibody), in assay [1], the apoptosis of Ramos cells after 24h (AnnexinV-FITC positive cells, absolute), 2000ng antibody, no crosslinker was 49 % of cells. Besides, the apoptosis of Ramos cells after 24h, normalised to the IgG1 control without crosslinker (100%) (% of IgG1 control) in assay [2] amounted to 546. Moreover, in assay [3], the IgG1 signal ratio (MFI of RTX variant divided by MFI of IgG1 control) at 0.5μg came out at 0.37 and the IgG1 signal ratio (MFI of RTX variant divided by MFI of IgG1 control) at 1μg amounted to 0.42.
Turning to Rituximab IgG4P (antibody), the apoptosis of Ramos cells after 24h (AnnexinV-FITC positive cells, absolute), 2000ng antibody, no crosslinker in assay [1] is 41 % of cells. The same substance had an apoptosis of Ramos cells after 24h, normalised to the IgG1 control without crosslinker (100%) (% of IgG1 control) in assay [2] of 441.
